Patent US11866736B2, “Protein prostheses for mitochondrial diseases or conditions” (The General Hospital Corporation, priority 2015, dated 2024)

What was measured:
[1] = test system: HeLa Tet3G cells; assay: Cell proliferation assays: rescue of the proliferation defect induced by respiratory chain inhibitors (nuclei counting); type: cell-based, human; conditions: for rescue of piericidin induced proliferation defect by supplementation: HeLa Tet3G Luciferase cells, compound added to medium, 3 days
Method: Five hundred HeLa Tet3G NDI1, Luciferase, LbNOX or mitoLbNOX cells were seeded in 200 μl of DMEM (DMEM (US Biological, D9800), 3.7 g/L NaHCO3, 10% dialyzed FBS (Life Technologies, 26400-044)) per well in a black 96-well plate with clear bottom (Corning, 3904). Twenty four hours after seeding, media was exchanged to DMEM without pyruvate (DMEM (US Biological, D9802), 15.9 mg/L phenol red, 3.7 g/L NaHCO3, 10% dialyzed FBS (Life Technologies, 26400-044))±10 μg/ml chloramphenicol±30 ng/ml ethidium bromide±1 mM pyruvate±300 ng/ml doxycycline. After 0, 2, 3, 4, 5 and 6 days, media was aspirated and cells were fixed by adding 100 μl of 4% paraformaldehyde in PBS and incubating at room temperature for at least 30 min. Paraformaldehyde solution was aspirated and cells were stained with 200 μl of 1 μg/ml Hoechst 33345 in PBS. Plates were covered with sealing aluminum foil and stored at 4° C. before counting cells in each well with Molecular Dynamics IMAGEXPRESS® Ultra (see “Nuclei counting using Molecular Devices IMAGEXPRESS® Ultra,” below).
One thousand HeLa Tet3G NDI1, Luciferase, LbNOX or mitoLbNOX cells were seeded in 200 μl of DMEM (DMEM (US Biological, D9800), 3.7 g/L NaHCO3, 10% dialyzed FBS (Life Technologies, 26400-044)) per well in a black 96-well plate with clear bottom (Corning, 3904). Twenty four hours after seeding, 10 μl of 6 μg/ml doxycycline (300 ng/ml final concentration) or water was added to each well. Twenty four hours after addition of doxycycline, media was exchanged to DMEM without pyruvate (DMEM (US Biological, D9802), 15.9 mg/L phenol red, 3.7 g/L NaHCO3, 10% dialyzed FBS (Life Technologies, 26400-044)), ±1 μM piericidin, ±1 μM antimycin, ±1 mM pyruvate and ±300 ng/ml doxycycline. After 0, 1, 2, 3 and 4 days, media was aspirated and cells were fixed by adding 100 μl of 4% paraformaldehyde in PBS and incubating at room temperature for at least 30 min. Paraformaldehyde solution was aspirated and cells were stained with 200 μl of 1 μg/ml Hoechst 33345. Plates were covered with sealing aluminum foil and stored at 4° C. before counting cells in each well with Molecular Dynamics IMAGEXPRESS® Ultra (see “Nuclei counting using Molecular Devices IMAGEXPRESS® Ultra,” below).
Two thousand HeLa Tet3G Luciferase cells were seeded in 200 μl of DMEM (DMEM (US Biological, D9800), 3.7 g/L NaHCO3, 10% dialyzed FBS (Life Technologies, 26400-044)) per well in a black 96-well plate with clear bottom (Corning, 3904). Twenty four hours after seeding, media was exchanged to DMEM without pyruvate (DMEM (US Biological, D9802), 15.9 mg/L phenol red, 3.7 g/L NaHCO3, 10% dialyzed FBS (Life Technologies, 26400-044))±1 μM piericidin, ±indicated concentrations of pyruvate, lactate, malate, oxaloacetate, nicotinamide mononucleotide ([…]) or PJ34. After 3 days, media was aspirated and cells were fixed by adding 100 μl of 4% paraformaldehyde in PBS and incubating at room temperature for at least 30 min. Paraformaldehyde solution was aspirated and cells were stained with 200 μl of 1 μg/ml Hoechst 33345. Plates were covered with sealing aluminum foil and stored at 4° C. before counting cells in each well with Molecular Dynamics IMAGEXPRESS® Ultra (see “Nuclei counting using Molecular Devices IMAGEXPRESS® Ultra,” below).
Images of 96-well plates with fixed cells stained with Hoechst 33345 were collected using Molecular Devices IMAGEXPRESS® Micro XLS. Four images were taken to cover the whole well. Images were analyzed and nuclei number per well was counted using CellProfiler 2.0 image analysis software (Carpenter, et al., Genome Biol., 7:R100, 2006; and Kamentsky, et al., Bioinformatics, 27:1179, 2011). […]

[2] = test system: HeLa Tet3G cells; assay: Glucose concentration-dependent cell survival; type: cell-based, human; conditions: 1 μM piericidin, 24 hours
Method: Images of 96-well plates with fixed cells stained with Hoechst 33345 were collected using Molecular Devices IMAGEXPRESS® Micro XLS. Four images were taken to cover the whole well. Images were analyzed and nuclei number per well was counted using CellProfiler 2.0 image analysis software (Carpenter, et al., Genome Biol., 7:R100, 2006; and Kamentsky, et al., Bioinformatics, 27:1179, 2011).
Ten thousand HeLa Tet3G NDI1, Luciferase, LbNOX or mitoLbNOX cells were seeded in 200 μl of DMEM (DMEM (US Biological, D9800), 3.7 g/L NaHCO3, 10% dialyzed FBS (Life Technologies, 26400-044)) per well of a black 96-well plate with clear bottom (Corning, 3904). Twenty four hours after seeding, 10 μl of 6 μg/ml doxycycline (300 ng/ml final concentration) or water was added to each well. Twenty four hours after addition of doxycycline, media was exchanged to DMEM (DMEM (US Biological, D9800), 3.7 g/L NaHCO3, 10% dialyzed FBS (Life Technologies, 26400-044))±300 ng/ml doxycycline. […] After 24 hours, media was aspirated and cells were fixed by adding 100 μl of 4% paraformaldehyde in PBS and incubating at room temperature for at least 30 min. Paraformaldehyde solution was aspirated and cells were stained with 200 μl of 1 μg/ml Hoechst 33345. Plates were covered with sealing aluminum foil and stored at 4° C. before counting cells in each well with Molecular Dynamics IMAGEXPRESS® Ultra (see “Nuclei counting using Molecular Devices IMAGEXPRESS® Ultra,” above).

## CN(C)CC(=O)Nc1ccc2[nH]c(=O)c3ccccc3c2c1 [PJ34, reference compound]
[1]; 1 μM piericidin
  rescue of piericidin induced proliferation defect by supplementation: did not rescue

## NC(=O)c1ccc[n+]([C@@H]2O[C@H](COP(=O)([O-])O)[C@@H](O)[C@H]2O)c1 [PMN, nicotinamide mononucleotide, reference compound]
[1]; 1 μM piericidin
  rescue of piericidin induced proliferation defect by supplementation: did not rescue

## CC(O)C(=O)O (stereo not drawn) [lactate, reference compound]
[1]; 1 μM piericidin
  rescue of piericidin induced proliferation defect by supplementation: do not

## O=C(O)CC(O)C(=O)O (stereo not drawn) [malate, reference compound]
[1]; 1 μM piericidin
  rescue of piericidin induced proliferation defect by supplementation: do not

B1: Ndi1: yeast (S. cerevisiae) NADH dehydrogenase Ndi1 protein, positive control (protein, UniProt P32340 27-513, looked up)
Rotenone-insensitive …: STGVENSGAGPTSFKTMKVIDPQHSDKPNVLILGSGWGAISFLKHIDTKKYNVSIISPRSYFLFTPLLPSAPVGTVDEKSIIEPIVNFALKKKGNVTYYEAEATSINPDRNTVTIKSLSAVSQLYQPENHLGLHQAEPAEIKYDYLISAVGAEPNTFGIPGVTDYGHFLKEIPNSLEIRRTFAANLEKANLLPKGDPERRRLLSIVVVGGGPTGVEAAGELQDYVHQDLRKFLPALAEEVQIHLVEALPIVLNMFEKKLSSYAQSHLENTSIKVHLRTAVAKVEEKQLLAKTKHEDGKITEETIPYGTLIWATGNKARPVITDLFKKIPEQNSSKRGLAVNDFLQVKGSNNIFAIGDNAFAGLPPTAQVAHQEAEYLAKNFDKMAQIPNFQKNLSSRKDKIDLLFEENNFKPFKYNDLGALAYLGSERAIATIRSGKRTFYTGGGLMTFYLWRILYLSMILSARSRLKVFFDWIKLAFFKRDFFKGL
[2]
  effect on decrease in cell number (cell survival) at low glucose concentrations in the presence of piericidin: rescued
[1]; 30 ng/ml ethidium bromide, no pyruvate, doxycycline-inducible expression
  rescue of proliferation defect caused by ethidium bromide: not
[1]; 1 μM antimycin, no pyruvate, doxycycline-inducible expression
  rescue of proliferation defect caused by antimycin: not
[1]; 1 μM piericidin, no pyruvate, doxycycline-inducible expression
  rescue of proliferation defect caused by piericidin: rescued
[1]; 10 μg/ml chloramphenicol, no pyruvate, doxycycline-inducible expression
  rescue of proliferation defect caused by chloramphenicol: not
